In PMC9482650, “Quantitative fragmentomics allow affinity mapping of interactomes” (Nature Communications, 2022) one finds pKd data, which are given here for 3 molecules.

Among the targets are MAGI3_4, Q5TCQ9; RIMS1, Q86UR5; Inadl_7, Q8NI35; IL16_2, Q14005; PARD3B_3, Q8TEW8; TJP1_2, Q07157; SCRIB_4, Q14160; DLG5_2, Q8TDM6; MAGI1_6, Q96QZ7; PARD3_3, Q8TEW0; MAGIX, Q9H6Y5.
Assay in all cases: holdup assay
What all share (design): key: below the threshold = too weak to quantify, mostly under pKd 3.1 to 4
What all share (conditions): plain residues with an end cap or a label only (N-terminal biotin on a linker: ttds)

The target in a further assay is T1, MPP1, Q00013.
T1 sequence (Q00013 66-162, limits assumed, looked up): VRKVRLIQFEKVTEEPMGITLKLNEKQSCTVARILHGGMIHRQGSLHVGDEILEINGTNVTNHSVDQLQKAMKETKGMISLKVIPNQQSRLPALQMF

The target in another assay is T2, INTU, Q9ULD6.
T2 sequence (Q9ULD6 180-273, limits assumed, looked up): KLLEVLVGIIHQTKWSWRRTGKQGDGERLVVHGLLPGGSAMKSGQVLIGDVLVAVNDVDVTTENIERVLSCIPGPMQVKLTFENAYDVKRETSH

Another assay deals with T3, NHERF3_2, Q5T2W1.
T3 sequence (Q5T2W1 129-225, limits assumed, looked up): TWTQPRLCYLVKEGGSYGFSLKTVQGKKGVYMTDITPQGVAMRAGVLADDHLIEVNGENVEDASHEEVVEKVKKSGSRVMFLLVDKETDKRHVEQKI

In a further assay the target is T4, SHANK3, Q9BYB0.
T4 sequence (Q9BYB0 641-750, limits assumed, looked up): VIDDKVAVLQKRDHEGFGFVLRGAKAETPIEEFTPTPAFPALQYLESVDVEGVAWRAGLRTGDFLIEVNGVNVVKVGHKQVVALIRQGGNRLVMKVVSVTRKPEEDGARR

Another assay has as its target T5, PTPN13_5, Q12923.
T5 sequence (Q12923 1877-1975, limits assumed, looked up): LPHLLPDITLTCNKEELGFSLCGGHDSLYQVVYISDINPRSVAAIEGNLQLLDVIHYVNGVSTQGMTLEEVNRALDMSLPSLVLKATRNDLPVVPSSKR

The target in another assay is T6, GRIP1_1, Q9Y3R0.
T6 sequence (Q9Y3R0 48-146, limits assumed, looked up): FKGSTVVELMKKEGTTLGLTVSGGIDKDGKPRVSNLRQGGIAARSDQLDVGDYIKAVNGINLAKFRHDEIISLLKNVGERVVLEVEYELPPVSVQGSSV

In the next assay the target is T7, PDZD7_2, Q9H5P4.
T7 sequence (Q9H5P4 205-303, limits assumed, looked up): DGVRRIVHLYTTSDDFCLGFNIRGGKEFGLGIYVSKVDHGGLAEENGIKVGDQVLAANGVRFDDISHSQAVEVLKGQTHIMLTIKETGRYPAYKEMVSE

The next assay deals with T8, SHROOM2, Q13796.
T8 sequence (Q13796 21-118, limits assumed, looked up): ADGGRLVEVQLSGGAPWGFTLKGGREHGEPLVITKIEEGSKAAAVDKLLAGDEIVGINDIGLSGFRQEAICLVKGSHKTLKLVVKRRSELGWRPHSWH

For a further assay, the target named is T9, MAGI2_1, Q86UL8.
T9 sequence (Q86UL8 12-111, limits assumed, looked up): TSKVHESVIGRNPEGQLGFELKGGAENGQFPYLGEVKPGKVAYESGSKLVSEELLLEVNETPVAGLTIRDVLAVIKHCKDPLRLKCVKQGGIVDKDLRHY

Another assay concerns the target T10, MPDZ_13, O75970.
T10 sequence (O75970 1982-2070, limits assumed, looked up): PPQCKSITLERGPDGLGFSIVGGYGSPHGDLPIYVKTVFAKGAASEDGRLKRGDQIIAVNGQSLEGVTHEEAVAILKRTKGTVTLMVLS

The target of a further assay is T11, MPDZ_10, O75970.
T11 sequence (O75970 1624-1722, limits assumed, looked up): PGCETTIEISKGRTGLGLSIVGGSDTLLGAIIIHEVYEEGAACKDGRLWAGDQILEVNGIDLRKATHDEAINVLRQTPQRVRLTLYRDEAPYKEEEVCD

Another assay deals with T12, PDZD2_6, O15018.
T12 sequence (O15018 2745-2839, limits assumed, looked up): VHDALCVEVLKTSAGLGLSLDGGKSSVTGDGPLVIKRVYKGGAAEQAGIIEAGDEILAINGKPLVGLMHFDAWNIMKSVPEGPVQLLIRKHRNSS

The next assay addresses T13, PTPN4, P29074.
T13 sequence (P29074 512-599, limits assumed, looked up): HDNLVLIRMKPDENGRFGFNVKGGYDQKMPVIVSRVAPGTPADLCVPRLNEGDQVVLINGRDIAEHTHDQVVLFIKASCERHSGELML

TJP1_2, Q07157, sequence (Q07157 181-274): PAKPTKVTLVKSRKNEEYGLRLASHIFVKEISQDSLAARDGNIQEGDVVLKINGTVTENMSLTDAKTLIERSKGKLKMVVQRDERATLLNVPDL
PARD3B_3, Q8TEW8, sequence (Q8TEW8 490-594): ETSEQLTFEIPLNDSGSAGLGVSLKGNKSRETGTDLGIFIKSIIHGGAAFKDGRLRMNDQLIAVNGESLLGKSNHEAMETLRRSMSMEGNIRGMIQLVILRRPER
MAGI3_4, Q5TCQ9, sequence (Q5TCQ9 716-815): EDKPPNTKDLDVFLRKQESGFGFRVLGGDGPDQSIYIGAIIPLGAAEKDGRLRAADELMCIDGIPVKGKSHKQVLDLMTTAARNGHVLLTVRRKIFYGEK
PARD3_3, Q8TEW0, sequence (Q8TEW0 582-685): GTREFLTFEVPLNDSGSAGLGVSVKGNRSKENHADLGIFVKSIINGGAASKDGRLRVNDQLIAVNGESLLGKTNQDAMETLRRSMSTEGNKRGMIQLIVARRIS
SCRIB_4, Q14160, sequence (Q14160 1095-1204): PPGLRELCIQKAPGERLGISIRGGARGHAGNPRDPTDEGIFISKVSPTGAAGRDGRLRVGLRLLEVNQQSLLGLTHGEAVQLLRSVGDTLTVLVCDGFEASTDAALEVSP
DLG5_2, Q8TDM6, sequence (Q8TDM6 714-800): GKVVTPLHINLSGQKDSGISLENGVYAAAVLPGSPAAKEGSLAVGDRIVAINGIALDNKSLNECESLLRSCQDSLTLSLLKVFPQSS
Inadl_7, Q8NI35, sequence (Q8NI35 1219-1332): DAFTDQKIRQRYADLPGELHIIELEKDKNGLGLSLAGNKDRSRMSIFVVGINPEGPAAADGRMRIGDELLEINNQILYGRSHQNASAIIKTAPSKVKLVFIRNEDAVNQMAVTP
MAGIX, Q9H6Y5, sequence (Q9H6Y5 118-211): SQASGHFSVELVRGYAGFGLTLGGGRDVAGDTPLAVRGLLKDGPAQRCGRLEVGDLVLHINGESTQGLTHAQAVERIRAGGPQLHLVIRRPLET
MAGI1_6, Q96QZ7, sequence (Q96QZ7 1146-1238): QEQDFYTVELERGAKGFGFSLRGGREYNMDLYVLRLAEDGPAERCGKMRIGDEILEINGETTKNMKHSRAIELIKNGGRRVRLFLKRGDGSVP
RIMS1, Q86UR5, sequence (Q86UR5 584-692): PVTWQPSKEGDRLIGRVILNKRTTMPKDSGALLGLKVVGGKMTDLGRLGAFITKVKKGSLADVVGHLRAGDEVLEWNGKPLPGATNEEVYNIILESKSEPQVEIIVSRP
IL16_2, Q14005, sequence (Q14005 350-450): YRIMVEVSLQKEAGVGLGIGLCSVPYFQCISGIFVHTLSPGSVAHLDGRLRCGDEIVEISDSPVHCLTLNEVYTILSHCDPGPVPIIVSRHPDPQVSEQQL

Consider SRPQRTQTQV [HPV67-E6, A4U7F2], for which the pKd (commonly the negative decadic logarithm of the Kd, by convention in mol/L) in the assay with MAGI3_4, Q5TCQ9 is “below the threshold”; with RIMS1, Q86UR5 it was “below the threshold”; with Inadl_7, Q8NI35 it was 4.46; in the assay with IL16_2, Q14005, 4.25; with MPP1, Q00013, 5.26; with PARD3B_3, Q8TEW8, “below the threshold”. For the same molecule, the pKd entry with TJP1_2, Q07157 is “below the threshold”; in the assay with INTU, Q9ULD6 it was “below the threshold”; in the assay with NHERF3_2, Q5T2W1, “below the threshold”; with SCRIB_4, Q14160 it was “below the threshold”; in the assay with SHANK3, Q9BYB0 it was “below the threshold”; with PTPN13_5, Q12923, “below the threshold”. Also, the pKd was 4.16 in the assay with DLG5_2, Q8TDM6; “below the threshold” with GRIP1_1, Q9Y3R0; “below the threshold” with PDZD7_2, Q9H5P4; “below the threshold” with MAGI1_6, Q96QZ7; “below the threshold” with SHROOM2, Q13796; “below the threshold” with MAGI2_1, Q86UL8. For the same molecule, the pKd result in the assay with MPDZ_13, O75970 was “below the threshold”; in the assay with PARD3_3, Q8TEW0, “below the threshold”; in the assay with MPDZ_10, O75970 it was 3.4; with PDZD2_6, O15018, “below the threshold”; with MAGIX, Q9H6Y5, “below the threshold”; with PTPN4, P29074 it was “below the threshold”.

In the case of SVWLRKETRV [CYSLTR2, Q9NS75], the pKd result with MAGI3_4, Q5TCQ9 was “below the threshold”; with RIMS1, Q86UR5, “below the threshold”; with Inadl_7, Q8NI35 it was “below the threshold”; in the assay with IL16_2, Q14005, “below the threshold”; with MPP1, Q00013, 6.03; with PARD3B_3, Q8TEW8, “below the threshold”. Besides, the pKd entry with TJP1_2, Q07157 is “below the threshold”; with INTU, Q9ULD6, “below the threshold”; with NHERF3_2, Q5T2W1, “below the threshold”; with SCRIB_4, Q14160, 4.91; with SHANK3, Q9BYB0, “below the threshold”; with PTPN13_5, Q12923 it was “below the threshold”. The pKd is 4.71 with DLG5_2, Q8TDM6; “below the threshold” with GRIP1_1, Q9Y3R0; “below the threshold” in the assay with PDZD7_2, Q9H5P4; “below the threshold” in the assay with MAGI1_6, Q96QZ7; 4.35 with SHROOM2, Q13796; “below the threshold” with MAGI2_1, Q86UL8. Moreover, the pKd entry with MPDZ_13, O75970 was “below the threshold”; with PARD3_3, Q8TEW0, 3.46; with MPDZ_10, O75970 it was 3.92; with PDZD2_6, O15018, “below the threshold”; with MAGIX, Q9H6Y5 it was “below the threshold”; in the assay with PTPN4, P29074 it was 4.52.

As to SSRTRRETQL [HPV16-E6, P03126], the pKd entry in the assay with MAGI3_4, Q5TCQ9 is given as “below the threshold”; in the assay with RIMS1, Q86UR5 it was “below the threshold”; with Inadl_7, Q8NI35 it was “below the threshold”; with IL16_2, Q14005 it was “below the threshold”; in the assay with MPP1, Q00013, “below the threshold”; with PARD3B_3, Q8TEW8 it was “below the threshold”. Also, the pKd entry with TJP1_2, Q07157 was “below the threshold”; with INTU, Q9ULD6, “below the threshold”; in the assay with NHERF3_2, Q5T2W1, “below the threshold”; with SCRIB_4, Q14160, “below the threshold”; in the assay with SHANK3, Q9BYB0, “below the threshold”; with PTPN13_5, Q12923, “below the threshold”. For the same molecule, the pKd was 4.12 with DLG5_2, Q8TDM6; “below the threshold” with GRIP1_1, Q9Y3R0; “below the threshold” with PDZD7_2, Q9H5P4; “below the threshold” with MAGI1_6, Q96QZ7; “below the threshold” with SHROOM2, Q13796; “below the threshold” in the assay with MAGI2_1, Q86UL8. Also, the pKd entry in the assay with MPDZ_13, O75970 was “below the threshold”; with PARD3_3, Q8TEW0, 3.65; with MPDZ_10, O75970, 3.68; with PDZD2_6, O15018, “below the threshold”; in the assay with MAGIX, Q9H6Y5, “below the threshold”; with PTPN4, P29074, 4.61.
